Article PMC7753147 (2020)

T1: Gephyrin E domain (gephE) (Rattus norvegicus, UniProt Q03555)
T1 chain: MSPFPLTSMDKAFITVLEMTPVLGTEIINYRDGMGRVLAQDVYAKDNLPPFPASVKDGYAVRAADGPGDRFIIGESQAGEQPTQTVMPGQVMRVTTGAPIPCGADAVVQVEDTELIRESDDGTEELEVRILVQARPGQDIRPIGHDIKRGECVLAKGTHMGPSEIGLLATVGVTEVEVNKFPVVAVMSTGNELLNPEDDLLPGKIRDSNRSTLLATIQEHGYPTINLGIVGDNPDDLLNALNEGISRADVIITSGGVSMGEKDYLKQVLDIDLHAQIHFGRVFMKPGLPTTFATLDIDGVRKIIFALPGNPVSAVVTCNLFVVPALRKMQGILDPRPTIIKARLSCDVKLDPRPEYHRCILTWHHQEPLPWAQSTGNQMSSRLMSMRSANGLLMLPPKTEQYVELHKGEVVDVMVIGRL

T2: gephyrin E domain (gephE), recombinant
T2 chain: T1 chain

B1: GlyRβ_Full_Positional_Scan_166 (peptide)
chain: DLRSNDFSVVGSLPR
B2: GlyRβ_Full_Positional_Scan_164 (peptide)
chain: DLRSNDFSLVGSLPR
B3: GlyRβ_Full_Positional_Scan_183 (peptide)
chain: DLRSNDFSIIGSLPR
B4: GlyRβ_Full_Positional_Scan_129 (peptide)
chain: DLRSNDYSIVGSLPR
B5: GlyR β-derived peptide 414DLRSNDFSIVGSLPR428, unmodified, in solution (peptide)
peptide: DLRSNDFSIVGSLPR
modifications: C-terminal amide
B6: GlyRβ_Full_Positional_Scan_128 (peptide)
chain: DLRSNDWSIVGSLPR
B7: GlyRβ_Full_Positional_Scan_177 (peptide)
chain: DLRSNDFSCVGSLPR
B8: GlyRβ_Full_Positional_Scan_156 (peptide)
chain: DLRSNDFTIVGSLPR
B9: GlyRβ_Full_Positional_Scan_178 (peptide)
chain: DLRSNDFSMVGSLPR
B10: GlyRβ_Full_Positional_Scan_142 (peptide)
chain: DLRSNDFGIVGSLPR

Assays:
[1] = biological target: T1, Gephyrin E domain (gephE)
[2] = biological target: T2, gephyrin E domain (gephE), recombinant

| Binder | EC50 [1] | Ki [2] |
| --- | --- | --- |
| B1 | 255 µM | – |
| B2 | 268 µM | – |
| B3 | 107 µM | – |
| B4 | 2200 µM | – |
| B5 | – | 10 µM |
| B6 | 380 µM | – |
| B7 | 118 µM | – |
| B8 | 198 µM | – |
| B9 | 228 µM | – |
| B10 | 505 µM | – |
